Results taken from patent US20180118789A1.

Assays:
[1] = target: mouse melanocortin 1 receptor (mouse) (UniProt Q01727); assay: cell-based or functional assay
[2] = target: mouse melanocortin 3 receptor (mouse) (UniProt P33033); assay: cell-based or functional assay
Chain of mouse melanocortin 3 receptor (mouse) (P33033 whole entry): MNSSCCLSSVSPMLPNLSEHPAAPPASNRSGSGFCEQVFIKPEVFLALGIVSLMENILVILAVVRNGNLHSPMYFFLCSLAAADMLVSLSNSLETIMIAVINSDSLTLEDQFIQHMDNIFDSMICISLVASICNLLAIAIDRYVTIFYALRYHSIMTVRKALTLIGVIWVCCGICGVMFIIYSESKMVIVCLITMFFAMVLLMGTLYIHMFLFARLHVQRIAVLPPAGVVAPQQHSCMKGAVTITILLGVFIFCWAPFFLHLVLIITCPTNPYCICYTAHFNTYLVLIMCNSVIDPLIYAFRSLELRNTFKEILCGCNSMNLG

Chain of mouse melanocortin 1 receptor (mouse) (Q01727 whole entry): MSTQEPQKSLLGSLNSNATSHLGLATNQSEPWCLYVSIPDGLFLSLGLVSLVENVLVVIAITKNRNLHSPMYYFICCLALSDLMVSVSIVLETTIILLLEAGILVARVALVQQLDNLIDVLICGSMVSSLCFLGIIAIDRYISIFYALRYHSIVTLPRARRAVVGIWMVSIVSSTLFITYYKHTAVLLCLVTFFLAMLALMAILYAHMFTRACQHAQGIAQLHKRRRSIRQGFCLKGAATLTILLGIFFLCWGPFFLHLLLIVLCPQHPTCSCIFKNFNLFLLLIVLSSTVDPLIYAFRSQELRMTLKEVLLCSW

“NDP-MSH (4-Norleucine-7-D-Phenylalanine), Ac-Ser-Tyr-Ser-Nle-Glu-His-DPhe-Arg-Trp-Gly-Lys-Pro-Val-NH2 (peptide)” gave an EC50 (nM), agonist, cAMP AlphaScreen [1] of 0.015 nM and an EC50 (nM), agonist, cAMP AlphaScreen [2] of 0.09 nM.
